We go through 40 sequences from the nanobody polyreactivity screen of Harvey et al. (2022).

This series can be described thus: yeast display, Sf9 membrane polyspecificity reagent, FACS + sequencing; frameworks hold sequencing errors. The gist of the method:
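Polyreactivity labels are assigned by the sorting gate from which each nanobody was recovered. The gates were low and high (top ~1%), set on anti-HA fluorescence for expression and streptavidin fluorescence for reagent binding. Before sorting, galactose-induced (36–48 hours) yeast display cells were stained for 1 hour at 4 °C with 10% biotinylated, detergent-solubilized Sf9 membrane reagent.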
“QVQLVESGGGLVQAGGSLRLSCAASGSIFRIYAMGWYRQAPGKERELVAAISWTGGSTYYADSVKGRFTISRDNAKNTFFLQMNSLKPEDTAVYYCAARPRYKFSAYEYWGQGTQVTVSS”: the “polyreactivity (PSR sort gate)” value is given as “high polyreactivity”.
The entry for “QFQLEESGGGLVQAGGSLRLSCADSGIIFFFYAMGWYRQAPGKERELVAAISDDGVSTDYADSVKGRFTISRDNAKNTVYLQMNSLKPEDTAVYYCAAKTERVYPWFSFGYWGQGTQVTVSS” is “low polyreactivity”.
The entry for “QVQLVESGGGLVQAGGSLRLSCAASGRTFVGYAMGWYRQAPGKEREFVAAISYRGGRTYYADSVKGRFTISRDNAKNTVYLQMNSLKPEDTAVYYCAAEYRSNHGGVDYWGQGTQVTVSS” is “high polyreactivity”.
The same measure for “QVHLVESGGGLVQAGGSLRLSCAASGFTFNLYAMGWYRQAPGQERELVAAINSSGGTYYADSVKGRFTLSRDNAKNTVYLQMNSLTAEDTAVYYCAADFPYTPWSYHHHVWSPDFVYWGQGTQVTVSS”: “low polyreactivity”; for “QVQLVESGGGLVQAAGSLRLSCAASGYTLAGNAMGWYRQSPGIERELVAAIDWNGGSTTYADSVKGRFTISRDNAKNTVYLQMNSLKPEDSAVYYCNVDLGVNGDYWGQGWQVTVSS”: “low polyreactivity”; for “QVQLVESVGGLVQAGGSLSLSCAASGSTFKQYAMGWYRQAPGKERELVAAISSRGGSTHYADSVKGRFTISRDNAKYTVYLQMNSLKPEDTAVYYCARDTDPQYSRSSDYDYWGQGTQVTVSS”: “low polyreactivity”.
For “QVQLVESGGGLVQAGGSLRFSCAASGFIFVVNAMGGSRQAPGKEREFVAVISSSTGSTYYADSVKGRFTISRDNAKTTVYLQMNSLKPEDTAVYYCAAASRRRRPLKRMDYWGQGTQVTVSS”, the “polyreactivity (PSR sort gate)” value is “low polyreactivity”.
The same measure for “QVQLVESGGGLVQAGGSLRLSCAASGFSVYPYAMGWYRQAPGKERELVAAISSSGGSTYYADSVKGRFTISRDNAKNTVYLQMNSLKPEDTAVYYCNKRPQQYRPGYDYWGQGTQVTVSS”: “high polyreactivity”; for “QVQLVESGGGLVQAGGSLRLSCAASGFTSWDNDMGWYRQAPGKERELVAAMSRGGSTNYADSVKGRFTISRDNAKNTVYLQMNSLKPEDTAVYYCAAGSYAGFAVIGYYYWGQGTQVTVSS”: “low polyreactivity”.
Turning to “QVQLVESGGGLVQAGGSLRLSCAASGSTFYHNVMGWSRQAPGKERELVASIDTGDSTNYADSVKGRFTISRDNAKNTVYLQMNSLKPEDTAVYYCNADSYPALNKRGYDYWGQGTQVTVSS”, the “polyreactivity (PSR sort gate)” value is given as “low polyreactivity”.
The same measure for “QVQIEESGGGLVQAGGSLRLSCAASGSIFPLYTMGWSRQAPGKERELVAAIDFRGGSTYYADSVKGRFTISRDNAKNSVYLQMNSLKPEDTAVYYCAAAYWAYDTGKMGYWGQGTQVTVSS”: “low polyreactivity”; for “QVQLVESGGGLVQAGGSLRLSCAASGSTFGRYAMGWYRQAPGKERELVATIDGSDGSTFYADSVKGRFTISRDNAKNTVYLQMNSLKPEDTAVYYCAAAWYDGYYYLVYYWGQGTQVTVSS”: “low polyreactivity”; for “QVQLVESGGGLVQAGGSLRLSCAASGSIFSDYAIGWYSTAPGKERELVASISWTGGGTYYADSVKGRFTISRDNAKNTVYLQMNSVKPEDTGFYYCAAEYSYIMDFWGQGTQVTVSS”: “high polyreactivity”.
The same measure for “QVQLVESGGGLVQEGGSLRLICAASGRTFGTNAMGWYRQAPAKERELVAGINYSDGSTYYADSVKGRFTITRDNAKNTVYLQMNSMKPEDTAVYYCAADPGWAWWELNYWGQGTQVTVSS”: “low polyreactivity”; for “QVQIVESVGCLVQARGSLRLSSAASGFILVINAMGWYRQAPGKERELVAAINGGDITNYADSVKGRFTFSRDNAKNNVYLQMNSLKPEDTAVYYCSADGEDSLWTGYDYDYWGLGTQVTVSS”: “low polyreactivity”; for “QVQLVESGGGLVQAGGSLRLSCAASGYIFDRNAMGWYRQAPGKERELLAAITKRGGITYYADSVKGRFTISRDNAKNTVYLQMNSLKPEDTAVYYCAADIGYYVYNDYDYWGQGTQVTVSS”: “low polyreactivity”.
The entry for “QVQLVESAGGLVQAGGSLRLSSAASGYNFCSYAMGWYRQAPGKEREFVATISASGGRTYYADSVKGRFTISRDNAKNTVYLQMNSMKPEDTAVYYCNADPGNHAYWYYVEFYYYTYDYWGQGTQVTVSS” is “low polyreactivity”; for “QVQLVESGGGLVQAGGSLRLSCAASGRIFSYYAMGWYRQAPGKERELVAAISWSGGRTYYADSVKGRFTISRDNAKNTVYLQMNSLKPEDTAVYYCAARLKLYLPRSAYDYWGQGTQVTVSS” it is “high polyreactivity”.
Consider “QVQLVESGGGLVQAGGSLRLSCAASGSTFTPYVMGWYRQAPGKERELVAAIRRRGGSTYYADSVKGRFTISRDNAKNSVYLQMNSLKPEDTAVYYCATDWSWLSLKFDYWGQGTQVTVSS”, for which the “polyreactivity (PSR sort gate)” value is recorded as “high polyreactivity”.
In the case of “QVQLVESGGGLVQPGGSLRLSCAASGRTFGSYVMGWYRQAPWKQRELVATISRRGGTTYYADSVKGRVTISRDNAKNSVYLELLSLKPVDTAVYYCADKYFGTRYDYWGQGTQVTVSS”, the “polyreactivity (PSR sort gate)” value is listed as “high polyreactivity”.
The entry for “QVQLVDSGGGLVQAGGSLRLSWAASGITFYTYTMGWYRQAPGKERELVAAISRRGGGTYYADSVKGRFTISRDNGKNTVYFQMNILKTEVTAVYYCAKDWYGRYYYWGQGTEVTVSS” is “high polyreactivity”; for “QVQVVESGGGLVQAGGSLRLRCAASGRIFAHYAMGWYRQAPGKEREMVAAISSSGTRTYYADSVKGRFTISRDNAKKTVYLQMNSLKPEDTAVYYCAKDSYHTVWGGYWGQGTQVTVSS” it is “high polyreactivity”; for “QVQLVESGGGLVQAGGSLRLSCAASGSISVRNVMGWYRQAPGKERELVATIRRTGGSTSYADSVKGRFTISRDNAKNTVYLQMNSLKPEDTAVYYCAAVGYTTYRRYDYWGQGTQVTVSS” it is “low polyreactivity”.
The entry for “QVQLVESGGGLFQAGGSLRLSCAASGGIFDVYDMGWYRQAPGKERELVAAISEKGGSTYYADSVKGRFTISRDNAKNTGYLQMNSLKPEDTAVYYCAADYVCLSVFSYWAWYDYWGQGTQVNVSS” is “low polyreactivity”; for “QVQLVESGGGLVQAGGSLRLSCAASGFTFHNYAMGWYRQAPGKERELVAAISASGSSTYYADSVKGRFTISRDNAKNTVYLQMNSLKPEDTAVYYCAAVGRYSPYGYWGQGTQVTVSS” it is “high polyreactivity”; for “QVQLVESGGGLVQAGGSLRLSCAAYGRTIRRNAMGWYRQAPGKERELVAGISGSGTITYADSVKGRFTIARDNAKNTVYLQMNSLKPEDTAVYYCAARRKSFYTFYYWGQGTQVTVSS” it is “high polyreactivity”.
With “QVQLVESGGGLVQAGGSLRLSCAASGRTLSNYAMGWSRQAPGKETELVAAISSSGSTNYADSVKGRFTISRDNAKNTVYLQMNSLKPEDTAVYYCAAESWFLRWYRYDYWGQGTQVSVSS”, the “polyreactivity (PSR sort gate)” value is reported as “low polyreactivity”.
The entry for “QVQLVESRAVLVQAGGSLRLSCAASGSIFYVYAMGWYRQAPGKERELVAAISSSSDSTYADSVKGRFTISRDNAKNTVYLQMNSLKPEDTAVYYCATAWYYGIVRGGLPYDYWGHGTQVTVSS” is “low polyreactivity”.
The entry for “QVQLVESGGGLVQARGILRLSCAASGSTFYTYTAMGWYRQAPGKERELVAAITWRGGSTYYADSVKGRFTIARDNAKNTVYLQMNSLKPQDSAVSSCAATLNRYGYDYWGQGTQVTVSS” is “high polyreactivity”; for “QVQLVESGGGLVQAGGSLRLSCAASGRTFKIYTMGWYRPAPGKERELVAAISRGGSTYYADSVKGRFTISRDNAKNTVYLQMNSLKPEDTAVYYCAVDLYYLSSASTRQVRRDYWGQGTQVTVSS” it is “high polyreactivity”.
In the case of “QFQLVESGGGLVQAGGSLRLSCAASGSFSGTNAMGWYRQAPGKERELVAGISYGGGSTYYADSVKGRFTISRDNAKNTVYLQMNSLKPEDTAVYYCAKYYAPYRFYYCGQGTQVTVSS”, the “polyreactivity (PSR sort gate)” value is reported as “high polyreactivity”.
The same measure for “QVQLVESGGGLVQAGGSLRLSCAASGRTFWFYDMGWYRQAPGKEREFVASITSSGGSTYYADSVKGRFTISRDIAKNTVYLQMNSLNPEDTAVYYCAASFYWTTRYSREYDYWGQGTQVTVSS”: “high polyreactivity”.
The same measure for “QVQLVESGGGLVQAGGSLRLSCAASGRIFLLNAMGWYRQAPGKERELVARISSGRTYYADSVKGRFTISRDNAKNTVYLNMNSLKPEDTAVYYCNATVSSSKYRYFYVNPYYYWGQGTQVTVSS”: “low polyreactivity”.
The same measure for “QVQLVESGGGLVQAGGSLRLSCAASGFIFVYYARGWYRQAPGKEMELVAAISRGGSTYYADSVKGRFTISRDNAKNTVYLQMNSLKPEDTAFYYCNKVLPYGREYGYWGQGTQVTVSS”: “high polyreactivity”.
As for “QVQLVESGGGLVQAGGSLRLSCAASGSNFFLYAMGWYRQAPGKEREFVAAITGTADSTYYADSVKGRFTISRDDAKNTVYLQMNSLKPEDTAVYYCATDYWSSVKLDDYWGQGTQVTVSS”, the “polyreactivity (PSR sort gate)” value was “low polyreactivity”.
The same measure for “QVQLVESGGGLVQAGGSLRLSCAASGSISSKNAMGWYRQAPGKEREFGAVISGTGGSTYYADSVKGRFTISRDNAKNTVYLQMNSLKPEDTAVYYCAAAASSIVSYGYTWTYGYWGQGTQVTVSS”: “low polyreactivity”; for “QVQLVESGGGLVQAGGSLRLSCAASGSTFWFYAMGWYRPAPGKERELVAVISNSGSTYYADSVKGRFTISRDNAKNTVYLQMNSLQPEDTAVYYCNKDGGGDSYWYDYWGQGTQVTVSS”: “low polyreactivity”.
The same measure for “QVQLVESGGGLVQAGGSLRLSCAASGSIFRKYAMGWYRQAPGKDRELVAAISKRGGSTYYADSVKGRFTISRDNAKNTVYLQMNSLKPEDTAVYYSNALRRYVSVRPTKSDYWGQGTQVTVSS”: “high polyreactivity”; for “QVQLVESGGGLVQAGGSLRLSCAASGLIFGNNAMGWYRQAPGKERELVAGIDWSGGSTYYADSVKGRFTISRDNAKNTVDLQMNSLKPEDTAVYYCNAALYVSGHYPNDYWGQGTQVTVSS”: “low polyreactivity”; for “QVQLVESGGGLVQAGGSIRLSCAASGRIFRYNAMGWYRQAPGKERELVAAISGSGDRTYYADSVKGRFTISRDTAKNTVYLQMNSLKPEDTAVYDCAADVVWRQYGSWFYYWGQGTQVTVSS”: “high polyreactivity”.
